Among the data in publication PMC6741145 are stoichiometry N values, retold here.

This experiment deals with His6‐tagged DP1 (small subunit of DNA polymerase D) of Thermococcus sp. 4557 (Thermococcus sp. 4557). Briefly: SEC; 100 µg of each protein or mixture on Superdex‐200 HR10/30 in 25 mM Tris‐HCl pH 7.5, 100 mM NaCl, 10% glycerol; fractions on SDS–PAGE, Coomassie. In general terms: In gel filtration, larger molecules generally elute earlier.

Take “His6‐tagged DP1 (small subunit of DNA polymerase D) of Thermococcus sp. 4557 (enzyme)”: the stoichiometry N was found to be 2.

What is called stoichiometry N is a count of units in the complex or per binding partner.
